Patent US20250333503A1

Assays:
[1] = biological target: mouse PVRL2 endogenously expressed on B16-F10 cells (mouse) (UniProt P32507); assay: FACS dose response on B16-F10 cells
[2] = biological target: mouse PVRL2 splice variant 2 on HEK293 cells (mouse); assay: FACS dose response on HEK293 OX mouse PVRL2

mouse PVRL2 endogenously expressed on B16-F10 cells (mouse), sequence (P32507 32-530): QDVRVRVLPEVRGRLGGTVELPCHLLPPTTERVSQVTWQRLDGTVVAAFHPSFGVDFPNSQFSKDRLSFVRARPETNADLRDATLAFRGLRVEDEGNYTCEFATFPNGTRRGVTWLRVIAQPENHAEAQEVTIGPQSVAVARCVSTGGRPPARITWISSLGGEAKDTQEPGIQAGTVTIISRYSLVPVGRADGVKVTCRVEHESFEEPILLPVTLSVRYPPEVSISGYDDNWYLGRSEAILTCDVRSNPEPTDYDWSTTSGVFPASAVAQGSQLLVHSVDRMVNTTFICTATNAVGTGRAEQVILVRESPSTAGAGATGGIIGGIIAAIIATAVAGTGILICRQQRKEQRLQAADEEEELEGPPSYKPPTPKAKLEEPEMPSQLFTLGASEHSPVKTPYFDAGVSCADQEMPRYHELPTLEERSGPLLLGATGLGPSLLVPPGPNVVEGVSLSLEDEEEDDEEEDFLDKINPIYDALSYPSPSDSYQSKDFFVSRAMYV

PVRIG mECD-mIg fusion protein (ECD of mouse PVRIG fused to Fc of mouse IgG2a) (Fc fusion)
concentration at saturation of binding [1]: 12.5 µg/mL | concentration at saturation of binding [2]: 12.5 µg/mL
